In this data set the test system is MS2 coat protein. In words: apparent KD of MS2 coat protein; designed switch direction (-1 OFF switch, 1 ON switch): -1; higher = weaker reporter binding. Summed up: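 The apparent KD reported per design is the median over clusters of curve fits to normalised cluster fluorescence. The RNA switches were transcribed on Illumina chips by stalled E. coli RNA polymerase. SNAP-549-labelled MS2 coat protein was titrated from 0.7 or 1.5 nM, doubling up to 3 µM, in Tris-HCl pH 7.5 buffer containing KCl, MgCl2, BSA, DTT, tRNA and Tween-20, with no input, 200 uM small-molecule ligand, or an oligonucleotide input.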

Where [1] appears, read: Eterna round: R95, input ligand: microRNA oligo, concentration not stated.
Where [2] appears, read: Eterna round: R95, input ligand: FMN 200 uM.
Setting [3] is: Eterna round: R95, input ligand: none.

Consider 22 sequences from the supplement of paper PMC9170038.

For “UAUGGUUAAGUCAGGAUAUGCACGCAGAUUACAAAGCAGAAGGGACAUGAGGAUCACCCAUGUACACUCGUGUU [Ex4 #79] (Eterna round: R97, puzzle: Brourd's mod of Exclusion 4)”, the “apparent KD of MS2 coat protein” value was determined as 25.9 nM (input ligand: FMN 200 uM) and 36.1 nM (input ligand: none).

In the case of “UAUGUUGUUGUGAGGAUAUACUUAGUUUGACCGUAGUAGAAGGCACAUGAGGAUCACCCAUGUAGAUGUUUGGU [JR_BME4_Sub005] (puzzle: Brourd's mod of Exclusion 4)”, under setting [1], the “apparent KD of MS2 coat protein” value turned out to be 14.9 nM.

Turning to “UAUGUUUUUGUGAGGAUAUACUUUGUUUGGUCGUAGUAGAAGGCACAUGAGGAUCACCCAUGUAGAUUUUUGGU [JR_BME4_Sub010] (puzzle: Brourd's mod of Exclusion 4)”, the “apparent KD of MS2 coat protein” value under setting [1] came out at 22.9 nM.

On to “UAUUAAACAAGCAGGUCCCACAUGAGGAUCACCCAUGUGCUCGUCUUAUAACGAUCUGUGGGAAAACCUACGGAUCG [Elimod 18 - Jieux - Sensor, turn-off variant 1] (Eterna round: R97, puzzle: Sensor, turn-off variant 1)”, for which the “apparent KD of MS2 coat protein” value (input ligand: FMN 200 uM) came out at 37.7 nM and the “apparent KD of MS2 coat protein” value (input ligand: none) worked out at 45.1 nM.

With “UAUUAACAAGCAAGAUCCUACAUGAGGAUCACCCAUGUGUUCGUCUUAUAAGGUACUGUGACGAAAGUCACGGUACC [Sensor 3, v1 - 75] (puzzle: Sensor v3, turn-off variant 1)”, the “apparent KD of MS2 coat protein” value was 76 nM under setting [2], 321 nM under setting [1] and 108 nM under setting [3].

As to “UAUUAACAAGCAUGAUCCCACAUGAGGAUCACCCAUGUGCUCGUCUUAUAAGGUACUGUGACGAAAGUCACGGUACC [Sensor 3, v1 - 85] (puzzle: Sensor v3, turn-off variant 1)”, the “apparent KD of MS2 coat protein” value under setting [2] turned out to be 132 nM, the “apparent KD of MS2 coat protein” value under setting [1] came to 139 nM and the “apparent KD of MS2 coat protein” value under setting [3] amounted to 144 nM.

With “UAUUAACAAGCUUGAUCCCACAUGAGGAUCACCCAUGUGCUCGUCUUAUAAGGUACUGUGACGAAAGUCACGGUACC [Sensor 3, v1 - 86] (puzzle: Sensor v3, turn-off variant 1)”, the “apparent KD of MS2 coat protein” value under setting [2] is 89.9 nM, the “apparent KD of MS2 coat protein” value under setting [1] stood at 206 nM and the “apparent KD of MS2 coat protein” value under setting [3] is 91.2 nM.

Consider “UAUUAAUGCAAGGAUAUGCUUUUAAUUUUUUUUGCAGAAGGUGCAACAUGAGGAUCACCCAUGUUUCCGGGUAU [JR_E6_Sub032] (puzzle: Exclusion 6)”, for which, under setting [1], the “apparent KD of MS2 coat protein” value was 25.7 nM.

For “UAUUAGCAAGAAAGAUCCCACAUGAGGAUCACCCAUGUGCUCGUCUUAUAAGGUACUGUGACGAAAGUCACGGUACC [Sensor 3, v1 - 89] (puzzle: Sensor v3, turn-off variant 1)”, the “apparent KD of MS2 coat protein” value under setting [2] is 25.3 nM, the “apparent KD of MS2 coat protein” value under setting [1] was 101 nM and the “apparent KD of MS2 coat protein” value under setting [3] is 26.4 nM.

As to “UAUUAGCAAGCAAAUGGGUACAUGAGGAUCACCCAUGUGCUCGUCUUAUAAGGUACUGUGCCGAAAGUCACGGUACC [mod--Eli2] (Eterna round: R97, puzzle: Sensor, turn-off variant 1)”, the “apparent KD of MS2 coat protein” value is 23 nM (input ligand: FMN 200 uM) and 23.4 nM (input ligand: none).

As for “UAUUAGCAAGCAACUGGGUACAUGAGGAUCACCCAUGUGCUCGUCUUAUAAGGUACUGUGACGAAAGUCACGGUACC [mod--Eli] (Eterna round: R97, puzzle: Sensor, turn-off variant 1)”, the “apparent KD of MS2 coat protein” value (input ligand: FMN 200 uM) stood at 17.4 nM and the “apparent KD of MS2 coat protein” value (input ligand: none) turned out to be 16.6 nM.

With “UAUUAGCAAGCGAGAUCCCACAUGAGGAUCACCCAUGUAAUAAAGCAUCCAGAAUUACUGGGUGCAGCUCGUCUUAU [Winner reversed engineered 11] (Eterna round: R97, puzzle: Sensor, turn-off variant 1)”, the “apparent KD of MS2 coat protein” value reads like this: (input ligand: FMN 200 uM) 32.7 nM; (input ligand: none) 31 nM.

As to “UAUUAGCAAGCGAGAUCCCACAUGAGGAUCACCCAUGUGCUCGUCUGCUCCAGAAUUACUGGAGCAGCUCGUCUUAU [Winner reversed engineered 19] (Eterna round: R97, puzzle: Sensor, turn-off variant 1)”, the “apparent KD of MS2 coat protein” value was found to be 21.7 nM (input ligand: FMN 200 uM) and 22.4 nM (input ligand: none).

Consider “UAUUAGCAAGCGAGAUCCCACAUGAGGAUCACCCAUGUGCUCGUCUUAUAAGGUACUGUGACGAGAGUCACGGUACC [Mat - Sensor, turn-off var - Eli Mod - D17] (Eterna round: R97, puzzle: Sensor, turn-off variant 1)”, for which the “apparent KD of MS2 coat protein” value by setting is: (input ligand: FMN 200 uM) 16.4 nM; (input ligand: none) 13.9 nM.

In the case of “UAUUAGCAAGCGAGGUCCCACAUGAGGAUCACCCAUGUGCUCGUCUUAUAAGGUACUGUGACGAUAGUCACGGUACC [Mat - Sensor, turn-off var - Eli Mod - D33] (Eterna round: R97, puzzle: Sensor, turn-off variant 1)”, the “apparent KD of MS2 coat protein” value reads like this: (input ligand: FMN 200 uM) 14.6 nM; (input ligand: none) 14.6 nM.

As for “UAUUAGCAAGUAAGAUCCCACAUGAGGAUCACCCAUGUGCUCGUCUUAUAAGGUACUGUGACGAGAGUCACGGUACC [Mat - Sensor, turn-off var - Eli Mod - D45] (Eterna round: R97, puzzle: Sensor, turn-off variant 1)”, the “apparent KD of MS2 coat protein” value is, setting by setting: (input ligand: FMN 200 uM) 16.4 nM; (input ligand: none) 19.1 nM.

In the case of “UAUUAGCGAGGAUAUACAUGAGGAUCACCCAUGUGAUCCUAAGGCUGAUAAAGCCUAUGUAGAAGGCGCAAAAG [jl-ex3.4.51 ViennaUCT mod] (Eterna round: R97, puzzle: Exclusion 3)”, the “apparent KD of MS2 coat protein” value reads like this: (input ligand: FMN 200 uM) 227 nM; (input ligand: none) 421 nM.

As to “UAUUAGUAAGGAUAUCCCACGUAGGACGAAAGUCCUACGUGGGAGAAGGUACAUGAGGAUCACCCAUGUCUAUU [Mod of Fisker 12 - Jieux - Exclusion 4] (Eterna round: R97, puzzle: Exclusion 4)”, the “apparent KD of MS2 coat protein” value (input ligand: FMN 200 uM) was found to be 20.4 nM and the “apparent KD of MS2 coat protein” value (input ligand: none) came out at 18.7 nM.

For “UAUUAGUAAGGAUAUGAGACGUAGGACUAAUGUCCUACGUCUCAGAAGGUACAUGAGGAUCACCCAUGUUUAUU [Mod of Fisker 8 - Jieux - Exclusion 4] (Eterna round: R97, puzzle: Exclusion 4)”, the “apparent KD of MS2 coat protein” value reads like this: (input ligand: FMN 200 uM) 23.5 nM; (input ligand: none) 19.3 nM.

In the case of “UAUUAGUAAGGAUAUGAGUCGUAGAACGAAAGUACUACGUCUCAGAAGGUACAUGAGGAUCACCCAUGUUCAUU [Mod of Fisker 3 - Jieux - Exclusion 4] (Eterna round: R97, puzzle: Exclusion 4)”, the “apparent KD of MS2 coat protein” value (input ligand: FMN 200 uM) is 21.8 nM and the “apparent KD of MS2 coat protein” value (input ligand: none) was found to be 13.5 nM.

As for “UAUUAUAAUGUAGGAUAUCUGCACGAUUAGUGCAGAGAAGGACAUGAGGAUCACCCAUGUAUAGUAGCUUCGGCUACAUUAUUU [ENG1-B1] (Eterna round: R96, puzzle: Exclusion NG 1)”, the “apparent KD of MS2 coat protein” value by setting is: (input ligand: FMN 200 uM) 114 nM; (input ligand: microRNA oligo, concentration not stated) 60.7 nM; (input ligand: none) 77.5 nM.

Regarding “UAUUAUGCAAGCAGGUCCCACAUGAGGAUCACCCAUGUGCUCGUCUUAUAAGGUACUGUGACGAAAGUCACGGUACC [Elimod 15 - Jieux - Sensor, turn-off variant 1] (Eterna round: R97, puzzle: Sensor, turn-off variant 1)”, the “apparent KD of MS2 coat protein” value (input ligand: FMN 200 uM) is 37.6 nM and the “apparent KD of MS2 coat protein” value (input ligand: none) is 37.9 nM.
